Test results taken from patent US20190382475A1 (Novartis, published 2019).

Tests used:
recombinant human HER3 [1] = target: T1, recombinant human HER3 (human, UniProt P21860 20-643, limits assumed); assay: SPR, BIAcore T200, antibody on chip, recombinant human antigen as analyte, steady state analysis
Procedure: (§1) A direct binding assay was performed to characterize the binding of the engineered antibodies against their antigen. Kinetic binding affinity constants (KD) were measured on protein-A captured protein using recombinant human antigens as analyte. Measurements were conducted on a BIAcore® T200 (GE Healthcare, Glattbrugg, Switzerland) at room temperature. […] To serve as reference, one flow cell was blank immobilized. Binding data were acquired by subsequent injection of analyte dilutions series on the reference and measuring flow cell. Zero concentration samples (running buffer only) were included to allow double referencing during data evaluation. For data evaluation, doubled referenced sensograms were used and analyzed by steady state analysis to generate the equilibrium dissociation constant (KD).

recombinant human HER3 [2] = target: T1, recombinant human HER3; assay: SPR, BIAcore T200, antibody on chip, recombinant human antigen as analyte, steady state analysis; second value taken for antibody 2 arm (HER3); HER3 arm (Antibody 2), second value of the cell
Procedure: as §1

recombinant human IL-17 = recombinant human IL-17 (human, UniProt Q16552 24-155, limits assumed); assay: SPR, BIAcore T200, antibody on chip, recombinant human antigen as analyte, steady state analysis; first value taken for antibody 1 arm (IL-17); IL-17 arm (Antibody 1), first value of the cell
Procedure: as §1

recombinant human c-Kit [3] = target: T2, recombinant human c-Kit (human, UniProt P10721 26-520, limits assumed); assay: SPR, BIAcore T200, antibody on chip, recombinant human antigen as analyte, steady state analysis; second value taken for antibody 2 arm (c-Kit); c-Kit arm (Antibody 2), second value of the cell
Procedure: as §1

recombinant human c-Kit [4] = target: T2, recombinant human c-Kit; assay: SPR, BIAcore T200, antibody on chip, recombinant human antigen as analyte, steady state analysis; first value taken for antibody 1 arm (c-Kit); c-Kit arm (Antibody 1), first value of the cell
Procedure: as §1

recombinant human c-Kit [5] = target: T2, recombinant human c-Kit; assay: SPR, BIAcore T200, antibody on chip, recombinant human antigen as analyte, steady state analysis
Procedure: as §1

Kd (recombinant human HER3 [2]) [nM] | Kd (recombinant human IL-17) [nM] | Binder | further results
– | – | anti-HER3 antibody, parental IgG1 (antibody, V domains shown, Parental, unmutated IgG1) VH: EVQLLESGGGLVQPGGSLRLSCAASGFTFSSYAMSWVRQAPGKGLEWVSVTGAVGRSTYYPDSVKGRFTISRDNSKNTLYLQMNSLRAEDTAVYYCARWGDEGFDIWGQGTLVTVSS VL: DIQMTQSPSSLSASVGDRVTITCRASQGISNWLAWYQQKPGKAPKLLIYGASSLQSGVPSRFSGSGSGTDFTLTISSLQPEDFATYYCQQYSSFPTTFGQGTKVEIKR | Kd (recombinant human HER3 [1]): 1 nM
4 | 0.01 | Mutated IL-17/Mutated HER3 (b) heterodimeric antibody (bispecific antibody, IgG1 bispecific) heavy 1: not shown light 1: AIQLTQSPSSLSASVGDRVTITCRPSQGINWELAWYQDKPGKAPKLLIYDASSLEQGVPSRFSGSGSGTDFTLTISSLQPEDFATYYCQQFNSYPLTFGGGTKVEIKRTVAAPSVFIFPPSDEKLKSGTASVVCLLNNFYPREAKVQWKVDNALQSGNSQESVTEQDSDDSTYSLSSTLTLSKADYEKHKVYACEVTHQGLSSPVTKSFNRGEC heavy 2: not shown light 2: DIQMTQSPSSLSASVGDRVTITCRASQGISNWLAWYQKKPGKAPKLLIYGASSLQSGVPSRFSGSGSGTDFTLTISSLQPEDFATYYCQQYSSFPTTFGQGTKVEIKRTVAAPSVFIFPPSDEDLKSGTASVVCLLNNFYPREAKVQWKVDNALQSGNSQESVTEQDSKDSTYSLSSTLTLSKADYEKHKVYACEVTHQGLSSPVTKSFNRGEC | –
– | 0.07 | Mutated IL-17/Mutated c-Kit heterodimeric antibody (bispecific antibody, IgG1 bispecific) heavy 1: not shown light 1: AIQLTQSPSSLSASVGDRVTITCRPSQGINWELAWYQDKPGKAPKLLIYDASSLEQGVPSRFSGSGSGTDFTLTISSLQPEDFATYYCQQFNSYPLTFGGGTKVEIKRTVAAPSVFIFPPSDEKLKSGTASVVCLLNNFYPREAKVQWKVDNALQSGNSQESVTEQDSDDSTYSLSSTLTLSKADYEKHKVYACEVTHQGLSSPVTKSFNRGEC heavy 2: not shown light 2: DIQMTQSPSSLSASVGDRVTITCRASQSISSYLNWYQKKPGKAPKLLIYYTSRLQSGVPSRFSGSGSGTDFTLTISSLQPEDFATYYCQQGRRLWSFGGGTKVEIKRTVAAPSVFIFPPSDEDLKSGTASVVCLLNNFYPREAKVQWKVDNALQSGNSQESVTEQDSKDSTYSLSSTLTLSKADYEKHKVYACEVTHQGLSSPVTKSFNRGEC | Kd (recombinant human c-Kit [3]): 20 nM
0.4 | – | Mutated c-Kit/Mutated HER3 (a) heterodimeric antibody (bispecific antibody, IgG1 bispecific) heavy 1: not shown light 1: DIQMTQSPSSLSASVGDRVTITCRASQSISSYLNWYQKKPGKAPKLLIYYTSRLQSGVPSRFSGSGSGTDFTLTISSLQPEDFATYYCQQGRRLWSFGGGTKVEIKRTVAAPSVFIFPPSDEDLKSGTASVVCLLNNFYPREAKVQWKVDNALQSGNSQESVTEQDSKDSTYSLSSTLTLSKADYEKHKVYACEVTHQGLSSPVTKSFNRGEC heavy 2: not shown light 2: DIQMTQSPSSLSASVGDRVTITCRASQGISNWLAWYQDKPGKAPKLLIYGASSLQSGVPSRFSGSGSGTDFTLTISSLQPEDFATYYCQQYSSFPTTFGQGTKVEIKRTVAAPSVFIFPPSDEKLKSGTASVVCLLNNFYPREAKVQWKVDNALQSGNSQESVTEQDSDDSTYSLSSTLTLSKADYEKHKVYACEVTHQGLSSPVTKSFNRGEC | Kd (recombinant human c-Kit [4]): 22 nM
– | – | anti-c-Kit antibody, parental IgG1 (antibody, V domains shown, Parental, unmutated IgG1, VH3/Vk1, made in-house) VH: EVQLVESGGGLVQPGGSLRLSCAASGFAFSGYYMAWVRQAPGKGLEWVANINYPGSSTYYLDSVKGRFTISRDNAKNSLYLQMNSLRAEDTAVYYCARGDYYGTTYWYFDVWGQGTTVTVSS VL: DIQMTQSPSSLSASVGDRVTITCRASQSISSYLNWYQQKPGKAPKLLIYYTSRLQSGVPSRFSGSGSGTDFTLTISSLQPEDFATYYCQQGRRLWSFGGGTKVEIKR | Kd (recombinant human c-Kit [5]): 20 nM
